{"source": "the RNAGym collection of RNA variant scans (doi:10.7554/elife.80360)", "parents": {"B1": {"name": "Twister Ribozyme (parent)", "chain": "AACACUGCCAAUGCCGGUCCCAAGCCCGGAUAAAAGUGGAGGGGGCGG"}}}
{"variants_of": "B1", "assay": "self-cleavage, relative activity (ratio to wild type); higher = more cleavage; co-transcriptional"}
{"variant": "U6A G29A", "self-cleavage": 0.787}
{"variant": "A30C G36A", "self-cleavage": 0.164}
{"variant": "U37G G38A", "self-cleavage": 0.774}
{"variant": "U18A U31A", "self-cleavage": 0.584}
{"variant": "A2U C15U", "self-cleavage": 0.531}
{"variant": "G28U G44A", "self-cleavage": 0.718}
{"variant": "C15G G29U", "self-cleavage": 0.11}
{"variant": "C9A G45C", "self-cleavage": 0.131}
{"variant": "C9A G45A", "self-cleavage": 0.41}
{"variant": "G29U A35U", "self-cleavage": 0.892}
{"variant": "A11C A33U", "self-cleavage": 0.853}
{"variant": "G44C C46A", "self-cleavage": 0.28}
{"variant": "U12C G29A", "self-cleavage": 0.988}
{"variant": "A4C A35G", "self-cleavage": 0.451}
{"variant": "G17A G45C", "self-cleavage": 0.278}
{"variant": "C9A", "self-cleavage": 0.776}
{"variant": "G17U G36A", "self-cleavage": 0.124}
{"variant": "A10U G36A", "self-cleavage": 0.804}
{"variant": "G24C G43U", "self-cleavage": 0.0968}
{"variant": "C14U G44A", "self-cleavage": 1.08}
{"variant": "G36A G47C", "self-cleavage": 0.234}
{"variant": "U18C G47A", "self-cleavage": 0.288}
{"variant": "A1G G43C", "self-cleavage": 0.255}
{"variant": "G24C A34C", "self-cleavage": 0.0955}
{"variant": "C21U G41C", "self-cleavage": 0.434}
{"variant": "G39A G42A", "self-cleavage": 0.146}
{"variant": "G28C G43A", "self-cleavage": 0.228}
{"variant": "A2U C19G", "self-cleavage": 0.0882}
{"variant": "A34C G47U", "self-cleavage": 0.107}
{"variant": "A23C G36A", "self-cleavage": 0.09}
{"variant": "U6A G42C", "self-cleavage": 0.291}
{"variant": "A10G G43C", "self-cleavage": 0.262}
{"variant": "C3A C27G", "self-cleavage": 0.0917}
{"variant": "C9A G38A", "self-cleavage": 0.393}
{"variant": "A23U G41A", "self-cleavage": 0.126}
{"variant": "C5U A23G", "self-cleavage": 0.23}
{"variant": "G39C G47U", "self-cleavage": 0.163}
{"variant": "A11G G43U", "self-cleavage": 0.374}
{"variant": "G36C G39C", "self-cleavage": 0.113}
{"variant": "C9G G24U", "self-cleavage": 0.0888}
{"variant": "C15G A23G", "self-cleavage": 0.0653}
{"variant": "G45U G48U", "self-cleavage": 0.757}
{"variant": "A11U C14A", "self-cleavage": 0.915}
{"variant": "C9A G13A", "self-cleavage": 1.09}
{"variant": "G39U A40G", "self-cleavage": 0.128}
{"variant": "C21G C25U", "self-cleavage": 0.0625}
{"variant": "A23C G41C", "self-cleavage": 0.112}
{"variant": "G16C C20A", "self-cleavage": 0.0672}
{"variant": "A4C C9G", "self-cleavage": 0.107}
{"variant": "G16C G45A", "self-cleavage": 0.161}
{"variant": "A4U G16A", "self-cleavage": 0.0873}
{"variant": "U18A C26U", "self-cleavage": 0.158}
{"variant": "G17C C26A", "self-cleavage": 0.286}
{"variant": "G24U C25U", "self-cleavage": 0.0725}
{"variant": "C20G G38C", "self-cleavage": 0.108}
{"variant": "C20G G38U", "self-cleavage": 0.0717}
{"variant": "C25U C27U", "self-cleavage": 0.74}
{"variant": "U18G C46G", "self-cleavage": 0.0845}
{"variant": "A10C C25A", "self-cleavage": 0.0743}
{"variant": "A10C C25U", "self-cleavage": 0.782}
{"variant": "A32C G38C", "self-cleavage": 0.89}
{"variant": "G36C G42U", "self-cleavage": 0.145}
{"variant": "A34C G39U", "self-cleavage": 0.11}
{"variant": "A11U G41U", "self-cleavage": 0.889}
{"variant": "U12C G43U", "self-cleavage": 0.485}
{"variant": "U6G C9G", "self-cleavage": 0.171}
{"variant": "A33C G45U", "self-cleavage": 0.71}
{"variant": "G28A A40C", "self-cleavage": 0.163}
{"variant": "A22C A23G", "self-cleavage": 0.341}
{"variant": "C25G U31G", "self-cleavage": 0.393}
{"variant": "C14U U37G", "self-cleavage": 0.845}
{"variant": "G7U C21U", "self-cleavage": 0.0705}
{"variant": "C15G C19A", "self-cleavage": 0.0812}
{"variant": "A2G C9G", "self-cleavage": 0.0579}
{"variant": "G16C G43A", "self-cleavage": 0.148}
{"variant": "C5U A11U", "self-cleavage": 0.564}
{"variant": "U6A C20G", "self-cleavage": 0.0822}
{"variant": "U12A U18G", "self-cleavage": 0.106}
{"variant": "C9G A32U", "self-cleavage": 0.517}
{"variant": "U18C C26A", "self-cleavage": 0.0527}
{"variant": "A34C U37A", "self-cleavage": 0.169}
{"variant": "G13A A30U", "self-cleavage": 0.899}
{"variant": "C25A G48C", "self-cleavage": 0.137}
{"variant": "A35U A40C", "self-cleavage": 0.195}
{"variant": "G7U C14U", "self-cleavage": 0.0997}
{"variant": "A2G A22G", "self-cleavage": 0.107}
{"variant": "A4U G41U", "self-cleavage": 0.0632}
{"variant": "A10G A22U", "self-cleavage": 0.971}
{"variant": "G28C G48U", "self-cleavage": 0.543}
{"variant": "C25G G48C", "self-cleavage": 0.167}
{"variant": "A32U G43U", "self-cleavage": 0.384}
{"variant": "C19G A32U", "self-cleavage": 0.287}
{"variant": "C20U G36U", "self-cleavage": 0.0929}
{"variant": "C8G G48C", "self-cleavage": 0.272}
{"variant": "U12C U18A", "self-cleavage": 0.474}
{"variant": "C25A C46G", "self-cleavage": 0.0534}
{"variant": "C14A A30U", "self-cleavage": 0.968}
{"variant": "C25A G45A", "self-cleavage": 0.0857}
{"variant": "C5U C46U", "self-cleavage": 0.825}
{"variant": "C3G G29U", "self-cleavage": 0.394}
{"variant": "G16C G17U", "self-cleavage": 0.174}
{"variant": "G7U G48A", "self-cleavage": 0.078}
{"variant": "G24A G44C", "self-cleavage": 0.0736}
{"variant": "C9A A35U", "self-cleavage": 0.628}
{"variant": "G13C G38A", "self-cleavage": 0.219}
{"variant": "C14G G36C", "self-cleavage": 0.065}
{"variant": "A2C G48A", "self-cleavage": 0.0475}
{"variant": "A1C G16A", "self-cleavage": 0.209}
{"variant": "U18G G42A", "self-cleavage": 0.0696}
{"variant": "A2C C25U", "self-cleavage": 0.0669}
{"variant": "C14U A23U", "self-cleavage": 0.722}
{"variant": "G17C G47C", "self-cleavage": 0.142}
{"variant": "A4G C8A", "self-cleavage": 0.524}
{"variant": "C20A G42C", "self-cleavage": 0.78}
{"variant": "U18A C20G", "self-cleavage": 0.0551}
{"variant": "G16A A40U", "self-cleavage": 0.125}
{"variant": "C14G C26U", "self-cleavage": 0.0493}
{"variant": "G13U A32C", "self-cleavage": 0.595}
{"variant": "C8A C21U", "self-cleavage": 0.107}
{"variant": "U6G A30G", "self-cleavage": 0.322}
{"variant": "A1U G13U", "self-cleavage": 0.0563}
{"variant": "A23U G44U", "self-cleavage": 0.484}
{"variant": "A32C", "self-cleavage": 0.967}
{"variant": "C14A G29U", "self-cleavage": 0.903}
{"variant": "G48A", "self-cleavage": 0.986}
{"variant": "G48U", "self-cleavage": 1.06}
{"variant": "C3U C14A", "self-cleavage": 0.351}
{"variant": "U18G C19G", "self-cleavage": 0.114}
{"variant": "A10U C19U", "self-cleavage": 0.92}
{"variant": "U37C G39A", "self-cleavage": 0.219}
{"variant": "A22C C25A", "self-cleavage": 0.12}
{"variant": "C5A A30U", "self-cleavage": 0.498}
{"variant": "A2G G47C", "self-cleavage": 0.212}
{"variant": "C15U A30C", "self-cleavage": 0.802}
{"variant": "G43U C46A", "self-cleavage": 0.271}
{"variant": "U12C G38A", "self-cleavage": 0.929}
{"variant": "A35G A40U", "self-cleavage": 0.107}
{"variant": "U31C A32G", "self-cleavage": 0.997}
{"variant": "C27G U37A", "self-cleavage": 0.106}
{"variant": "A2C A30G", "self-cleavage": 0.105}
{"variant": "G17U A33U", "self-cleavage": 0.257}
{"variant": "A34C", "self-cleavage": 0.378}
{"variant": "G17U G48U", "self-cleavage": 0.316}
{"variant": "C19G G42C", "self-cleavage": 0.139}
{"variant": "C5U A35U", "self-cleavage": 0.91}
{"variant": "G29C G43C", "self-cleavage": 0.118}
{"variant": "A30C G42A", "self-cleavage": 0.129}
{"variant": "U6A A23C", "self-cleavage": 0.097}
{"variant": "A11G C46A", "self-cleavage": 0.808}
{"variant": "A22C G29C", "self-cleavage": 0.929}
{"variant": "C20A C46G", "self-cleavage": 0.0871}
{"variant": "C5G U31G", "self-cleavage": 0.757}
{"variant": "A4C C8A", "self-cleavage": 0.119}
{"variant": "G7C G39C", "self-cleavage": 0.071}
{"variant": "C3G A34G", "self-cleavage": 0.235}
{"variant": "C3G A34U", "self-cleavage": 0.203}
{"variant": "C15A C25A", "self-cleavage": 0.0919}
{"variant": "C15A C25U", "self-cleavage": 0.436}
{"variant": "G7U G13A", "self-cleavage": 0.0636}
{"variant": "C9A G48U", "self-cleavage": 0.451}
{"variant": "U12G G38C", "self-cleavage": 0.881}
{"variant": "C9G G36U", "self-cleavage": 0.137}
{"variant": "A33G C46G", "self-cleavage": 0.855}
{"variant": "C9G C21G", "self-cleavage": 0.115}
{"variant": "C20A G47C", "self-cleavage": 0.108}
{"variant": "U6C A35C", "self-cleavage": 0.403}
{"variant": "G7C C20U", "self-cleavage": 0.122}
